Data reported in publication PMC5466808.
Where “and” joins values, the source holds several entries; their conditions need not be identical. Equal entries are not always repeated. Where two headings read alike, the source gives them in different places.

Assays:
[1] = target: full length human G208C NFU1 (human) (UniProt Q9UMS0); assay: AUC
[2] = target: full length human G208C NFU1 (human) (UniProt Q9UMS0); assay: AUC; remark: listed apart in the source

percent dimer (holo protein) [1]: 65.6%
stoichiometry N [1]: 2 and 4
percent dimer (with 1 mM TCEP) [2]: 60%
percent dimer (without TCEP) [2]: 58%
percent higher order oligomer (with 1 mM TCEP) [2]: 1.5%
percent higher order oligomer (without TCEP) [2]: 6%
percent monomer (with 1 mM TCEP) [2]: 30%
percent monomer (without TCEP) [2]: 29%
stoichiometry N [2]: 2
Substance: full length human G208C NFU1 (from UniProt Q9UMS0 10-254) (natural protein)
